# Laboratory results published in article PMC2172130.
# pKd: −log10 of the molar value.
# Target: tomosyn (expressed in Sf9 cells) (UniProt Q9WU70)
# Experiment: far-Western, overlay or dot blot
# UniProt Q9WU70, sequence (Q9WU70 whole entry): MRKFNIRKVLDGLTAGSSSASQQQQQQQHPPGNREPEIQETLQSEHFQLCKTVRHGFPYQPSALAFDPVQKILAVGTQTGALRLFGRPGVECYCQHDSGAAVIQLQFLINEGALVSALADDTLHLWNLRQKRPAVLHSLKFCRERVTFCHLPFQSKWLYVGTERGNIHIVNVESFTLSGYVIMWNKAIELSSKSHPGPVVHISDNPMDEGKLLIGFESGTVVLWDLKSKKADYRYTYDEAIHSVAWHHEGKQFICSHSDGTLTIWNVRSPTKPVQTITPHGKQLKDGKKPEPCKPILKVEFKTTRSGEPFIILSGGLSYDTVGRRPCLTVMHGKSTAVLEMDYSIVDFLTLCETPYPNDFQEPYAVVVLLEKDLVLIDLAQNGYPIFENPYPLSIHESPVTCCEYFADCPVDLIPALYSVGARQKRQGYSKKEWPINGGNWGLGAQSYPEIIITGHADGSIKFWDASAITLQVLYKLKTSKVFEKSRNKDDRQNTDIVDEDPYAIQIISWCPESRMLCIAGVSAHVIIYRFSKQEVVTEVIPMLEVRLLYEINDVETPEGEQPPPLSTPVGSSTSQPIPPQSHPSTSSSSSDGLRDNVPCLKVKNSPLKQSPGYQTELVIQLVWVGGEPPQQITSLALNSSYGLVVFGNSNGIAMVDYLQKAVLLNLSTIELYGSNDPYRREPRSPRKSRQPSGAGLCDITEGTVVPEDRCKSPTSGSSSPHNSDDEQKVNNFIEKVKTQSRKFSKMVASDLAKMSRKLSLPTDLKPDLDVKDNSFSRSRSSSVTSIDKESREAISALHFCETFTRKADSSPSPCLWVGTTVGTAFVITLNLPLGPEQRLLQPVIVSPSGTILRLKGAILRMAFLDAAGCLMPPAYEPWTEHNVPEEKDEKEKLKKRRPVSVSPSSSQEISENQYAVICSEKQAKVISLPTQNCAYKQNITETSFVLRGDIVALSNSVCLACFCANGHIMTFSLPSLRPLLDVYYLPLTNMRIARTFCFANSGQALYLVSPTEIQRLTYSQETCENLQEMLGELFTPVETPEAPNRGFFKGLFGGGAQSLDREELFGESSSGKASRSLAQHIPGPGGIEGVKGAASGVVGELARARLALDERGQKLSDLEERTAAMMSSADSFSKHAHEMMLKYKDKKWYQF
substance,measurement,value
"syntaxin-1, nonphosphorylated form (recombinant) (from UniProt P32851 1-288) (natural protein)",pKd,6.92
